Assay results published in publication PMC7367684, “Mechanical inhibition of isolated Vo from V/A-ATPase for proton conductance” (eLife, 2020).

T1: a subunit of the Thermus thermophilus V/A-ATPase (Thermus thermophilus, UniProt Q5SIT6 1-652)
T1 construct: a subunit (subunit I) of the V/A-ATPase of Thermus thermophilus, strain HB8; soluble arm domain asol and C-terminal hydrophobic domain aCT (membrane domain printed as A327-E637); also called asol (soluble arm domain); aCT (membrane-embedded C-terminal region)
T1 sequence: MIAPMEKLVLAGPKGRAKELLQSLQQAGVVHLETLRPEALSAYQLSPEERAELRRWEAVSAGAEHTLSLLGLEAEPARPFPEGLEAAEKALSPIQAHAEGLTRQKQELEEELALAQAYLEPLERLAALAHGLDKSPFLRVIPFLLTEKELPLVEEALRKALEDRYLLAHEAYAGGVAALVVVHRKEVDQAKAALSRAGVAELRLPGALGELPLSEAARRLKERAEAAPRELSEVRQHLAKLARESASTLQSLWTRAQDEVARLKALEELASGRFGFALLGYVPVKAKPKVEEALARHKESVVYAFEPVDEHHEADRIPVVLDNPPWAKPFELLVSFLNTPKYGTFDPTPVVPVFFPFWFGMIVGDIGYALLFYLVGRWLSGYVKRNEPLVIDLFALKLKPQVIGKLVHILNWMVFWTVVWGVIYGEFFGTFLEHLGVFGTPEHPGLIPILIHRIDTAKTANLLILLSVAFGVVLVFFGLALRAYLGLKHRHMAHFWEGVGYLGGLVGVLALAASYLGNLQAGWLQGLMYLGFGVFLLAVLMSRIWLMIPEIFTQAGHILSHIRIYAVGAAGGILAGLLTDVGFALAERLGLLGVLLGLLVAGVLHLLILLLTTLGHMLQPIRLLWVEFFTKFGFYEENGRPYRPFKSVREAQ

B1: D subunit of the Thermus thermophilus V/A-ATPase (natural protein)
chain: MSQVSPTRMNLLQRRGQLRLAQKGVDLLKKKRDALVAEFFGLVREAMEARKALDQAAKEAYAALLLAQAFDGPEVVAGAALGVPPLEGVEAEVENVWGSKVPRLKATFPDGALLSPVGTPAYTLEASRAFRRYAEALIRVANTETRLKKIGEEIKKTTRRVNALEQVVIPGIRAQIRFIQQVLEQREREDTFRLKRIKGKIEAREAEEEGGRPNPQVEIGAGL
notes: D subunit (central shaft) of the V/A-ATPase of Thermus thermophilus, strain HB8; holds the short helix called screw driver helix (SDH); also called subunit D; axis subunit of the V1 domain; source: T. thermophilus membranes, V/A-ATPase purified (Ni-NTA by the His3 tag on the c-subunit, Resource Q), in nanodiscs
B2: c subunit of the Thermus thermophilus V/A-ATPase (c12 rotor ring) (natural protein)
chain: AEEAAASGGLDRGLIAVGMGLAVGLAALGTGVAQARIGAAGVGAIAEDRSNFGTALIFLLLPETLVIFGLLIAFILNGRL
notes: c subunit (subunit K/L, proteolipid) of the V/A-ATPase of Thermus thermophilus, strain HB8; chains Y and Z of the model are named in the text; Stands as a ring of twelve copies in Vo; also called c12 ring; c-ring; not shown: His3, C-terminal, kept; copies: 12
B3: F subunit of the Thermus thermophilus V/A-ATPase (natural protein)
chain: MAVIADPETAQGFRLAGLEGYGASSAEEAQSLLETLVERGGYALVAVDEALLPDPERAVERLMRGRDLPVLLPIAGLKEAFQGHDVEGYMRELVRKTIGFDIKL
notes: F subunit (central shaft) of the V/A-ATPase of Thermus thermophilus, strain HB8; also called subunit F; source: T. thermophilus membranes, V/A-ATPase purified (Ni-NTA by the His3 tag on the c-subunit, Resource Q), in nanodiscs
B4: d subunit of the Thermus thermophilus V/A-ATPase (natural protein)
chain: MADDFAYLNARVRVRRGTLLKESFFQEALDLSFADFLRLLSETVYGGELAGQGLPDVDRAVLRTQAKLVGDLPRLVTGEAREAVRLLLLRNDLHNLQALLRAKATGRPFEEVLLLPGTLREEVWRQAYEAQDPAGMAQVLAVPGHPLARALRAVLRETQDLARVEALLAKRFFEDVAKAAKGLDQPALRDYLALEVDAENLRTAFKLQGSGLAPDAFFLKGGRFVDRVRFARLMEGDYAVLDELSGTPFSGLSGVRDLKALERGLRCVLLKEAKKGVQDPLGVGLVLAYVKEREWEAVRLRLLARRAYFGLPRAQVEEEVVCP
notes: d subunit (subunit C) of the V/A-ATPase of Thermus thermophilus, strain HB8

Columns and labels:
[1] = target: B4; test: cryo-EM structure; holo V/A-ATPase (His3 tag on the c subunit) in nanodiscs (MSP1E3D1, POPC), 20 mM Tris-HCl pH 8.0, 150 mM NaCl, 2 mM MgCl2; Titan Krios, Falcon II; rotational state 1, 3.6 Å overall, 3.5 Å focused map of A3B3DFE2G2dasol; conditions: both partners purified
[2] = target: the molecule itself; test: cryo-EM structure; isolated Vo (His3 tag on the c subunit) in nanodiscs (MSP1E3D1, DMPC by the methods), 20 mM Tris-HCl pH 8.0, 150 mM NaCl; CRYOARM200, K2 Summit; 3.9 Å
[3] = target: B1; test: cryo-EM structure; holo V/A-ATPase (His3 tag on the c subunit) in nanodiscs (MSP1E3D1, POPC), 20 mM Tris-HCl pH 8.0, 150 mM NaCl, 2 mM MgCl2; Titan Krios, Falcon II; rotational state 1, 3.6 Å overall, 3.5 Å focused map of A3B3DFE2G2dasol; conditions: both partners purified
[4] = target: T1, a subunit of the Thermus thermophilus …; test: cryo-EM structure; isolated Vo (His3 tag on the c subunit) in nanodiscs (MSP1E3D1, DMPC by the methods), 20 mM Tris-HCl pH 8.0, 150 mM NaCl; CRYOARM200, K2 Summit; 3.9 Å; conditions: both partners purified

B1: binds [1].

B2 was tested, and the “stoichiometry N” value [2] was 12.

B3: binds [3].

B4: binds [4].
